Data reported in the Human Domainome abundance scans (Beltran et al. 2025).
± gives the uncertainty stated by the source.

B1: Calcium-binding protein 2, residues 155 to 219; numbered along this chain, Q9NPB3 (parent)
chain: RELRDAFREFDTNGDGRISVGELRAALKALLGERLSQREVDEILQDVDLNGDGLVDFEEFVRMMS

Variants of: B1
Assay: abundance fitness (aPCA) (normalised: wild type 0, dead -1); higher = more abundant; growth selection in yeast, the domain comes from the species named
Details: Homo sapiens

Row | Variant | abundance fitness
1 | RELRDAFREFDTNGDGRISVGELRAALKALLGERLSQREVDEILQVVDLNGDGLVDFEEFVRMMS [D46V] | -0.343 ± 0.083
2 | RELRDAFREFDTNGDGRISVGELRAALKALLGERLSQREVDEILQDVDLNGDGLVDFEMFVRMMS [E59M] | 0.059 ± 0.068
3 | RELRDAFREFDTNGDGRISVGELRAALKALLGERLSQREVDEILQDVDLNGDGLVDFEKFVRMMS [E59K] | -0.092 ± 0.21
4 | RELRDAFREFDTNGDGRISVGELRAALKALLGERLSQREVDEILQDVDLNGDGLVDFEIFVRMMS [E59I] | -0.051 ± 0.1
5 | RELRDAFREFDTTGDGRISVGELRAALKALLGERLSQREVDEILQDVDLNGDGLVDFEEFVRMMS [N13T] | -0.404 ± 0.095
6 | RELRDAFREFDTNGDGRISVGRLRAALKALLGERLSQREVDEILQDVDLNGDGLVDFEEFVRMMS [E22R] | -0.549 ± 0.061
7 | RELRLAFREFDTNGDGRISVGELRAALKALLGERLSQREVDEILQDVDLNGDGLVDFEEFVRMMS [D5L] | -0.32 ± 0.042
8 | EELRDAFREFDTNGDGRISVGELRAALKALLGERLSQREVDEILQDVDLNGDGLVDFEEFVRMMS [R1E] | 0.423 ± 0.36
9 | MELRDAFREFDTNGDGRISVGELRAALKALLGERLSQREVDEILQDVDLNGDGLVDFEEFVRMMS [R1M] | 0.206 ± 0.21
10 | AELRDAFREFDTNGDGRISVGELRAALKALLGERLSQREVDEILQDVDLNGDGLVDFEEFVRMMS [R1A] | -0.114 ± 0.33
11 | RELRDAFREFDTNGDGRISVGELRAALKALLGERLSQREVDEILQDVDLDGDGLVDFEEFVRMMS [N50D] | 0.186 ± 0.077
12 | RELRDAFREFDTNGDGRISVGELRAALKALLGERLSQREVDEILQDVDLQGDGLVDFEEFVRMMS [N50Q] | -0.014 ± 0.09
13 | RELRDAFREFDTNGDGRISVGELRAALKALLGERLSQREVDEILQDVDLNGDGDVDFEEFVRMMS [L54D] | -0.208 ± 0.14
14 | RELRDAFREFDTNGDMRISVGELRAALKALLGERLSQREVDEILQDVDLNGDGLVDFEEFVRMMS [G16M] | -0.376 ± 0.15
15 | RELRDAFREFDTNGDGRISVGELRAALKALLGERLSQREVDEILQDVDLNGDGLVDFEEFVRTMS [M63T] | 0.102 ± 0.069
16 | RELRDAFREFDTNGDGRISVGELRAALKALLGERLSQREKDEILQDVDLNGDGLVDFEEFVRMMS [V40K] | -0.04 ± 0.082
17 | RELRDAFREFDTNGDGRISVGELRAALKALLGERLSQREVDEILQDVDLNTDGLVDFEEFVRMMS [G51T] | 0.006 ± 0.11
18 | RELRDAFREFDTNGDGRISVGELRAALKALLGERLSQREVDEILQDVDLNGDGLVDFEEFVRMHS [M64H] | 0.098 ± 0.13
19 | RELRDAFREFDTNGDGRISVGELRAALKALLGENLSQREVDEILQDVDLNGDGLVDFEEFVRMMS [R34N] | 0.043 ± 0.3
20 | RELRDAFREFDTNGDGRISVGELRAALKALLGERLSQREVDEILQDVNLNGDGLVDFEEFVRMMS [D48N] | 0.122 ± 0.13
21 | RELRDAFREFDTNGDGRISVGELRAALKALLGERLSQREVDEILQDVTLNGDGLVDFEEFVRMMS [D48T] | 0.057 ± 0.098

Row | Variant | abundance fitness
22 | RELRDAFREFDTNGDGRISVGELRAALKALLGERLSQREVDEILQDVVLNGDGLVDFEEFVRMMS [D48V] | 0.092 ± 0.048
23 | RELRDAFREFDTNGDGRISVGELRAALKALLGERLSQREVDEILQDVDLNGDGLVCFEEFVRMMS [D56C] | -0.321 ± 0.15
24 | RELRDAFREFDTNGDGRISVGELRAALKALLGERLSQREVDEILQDVDLNGDGLVRFEEFVRMMS [D56R] | -0.088 ± 0.052
25 | RELRDAFREFDTNGDGRISVGELRAALKALLGERLSQREVDEILQDVDLNGDGLVNFEEFVRMMS [D56N] | -0.022 ± 0.16
26 | RELRDAFREFDTNGDGRISVGELRAALKALLGERLSQREVDEILQDVDLNGDGLVMFEEFVRMMS [D56M] | -0.262 ± 0.18
27 | RELRDAFREFDTNGDGRISVCELRAALKALLGERLSQREVDEILQDVDLNGDGLVDFEEFVRMMS [G21C] | -0.244 ± 0.23
28 | RELRDAFREFDTNGDGRISVGELRAALKALLGSRLSQREVDEILQDVDLNGDGLVDFEEFVRMMS [E33S] | -0.045 ± 0.068
29 | RLLRDAFREFDTNGDGRISVGELRAALKALLGERLSQREVDEILQDVDLNGDGLVDFEEFVRMMS [E2L] | -0.612 ± 0.058
30 | RDLRDAFREFDTNGDGRISVGELRAALKALLGERLSQREVDEILQDVDLNGDGLVDFEEFVRMMS [E2D] | -0.677 ± 0.37
31 | RELRDAFREFDTNGDGRISVGELRAAEKALLGERLSQREVDEILQDVDLNGDGLVDFEEFVRMMS [L27E] | -0.311 ± 0.077
32 | RELRDAFREFDTNGDGRISVGELRAAMKALLGERLSQREVDEILQDVDLNGDGLVDFEEFVRMMS [L27M] | -0.025 ± 0.098
33 | RELRDAFREFDTNGDGRISVGELRAADKALLGERLSQREVDEILQDVDLNGDGLVDFEEFVRMMS [L27D] | -0.464 ± 0.14
34 | RELRDAFREFDTNGDGRISVGELRAALKALLGERLSQREVDEILQDVDLNGDGLPDFEEFVRMMS [V55P] | -0.874 ± 0.098
35 | RELRDAFREFDTNGDGRISVGELRAALKALLGERLSQREVDEILQDVDLNGDGLVDFEEFQRMMS [V61Q] | -0.051 ± 0.13
36 | RELRDAFREFDTNGDGRISVGELRAKLKALLGERLSQREVDEILQDVDLNGDGLVDFEEFVRMMS [A26K] | -0.587 ± 0.43
37 | RELRDAFREFDTNGDGRISVGEFRAALKALLGERLSQREVDEILQDVDLNGDGLVDFEEFVRMMS [L23F] | -0.235 ± 0.1
38 | RELRDAFREFDTNGDGRISVGEPRAALKALLGERLSQREVDEILQDVDLNGDGLVDFEEFVRMMS [L23P] | -0.592 ± 0.12
39 | RELRDAFREFDTNGDGRISVGEERAALKALLGERLSQREVDEILQDVDLNGDGLVDFEEFVRMMS [L23E] | -0.663 ± 0.14
40 | RELRDAFREFDTNGDGRISVGEARAALKALLGERLSQREVDEILQDVDLNGDGLVDFEEFVRMMS [L23A] | 0.118 ± 0.072
41 | RELRDAFREFDTNGDGRISVGEYRAALKALLGERLSQREVDEILQDVDLNGDGLVDFEEFVRMMS [L23Y] | -0.249 ± 0.15
